Consider one molecule from paper PMC3025356, “Mechanism of the Ca^2+-Dependent Interaction between S100A4 and Tail Fragments of Nonmuscle Myosin Heavy Chain IIA” (Journal of Molecular Biology, 2011).

The target in data set [1] is T1, S100A4 (Homo sapiens, UniProt P26447).
T1 construct: We used full-length S100A4 for this analysis; made in house; host or cells: Escherichia coli BL21(DE3)
Put plainly: Quin-2 fluorescence, Ca^2+ dissociation from S100A4 in the presence of target peptides. It is filed as binding. As to the method: Ca^2+ dissociation measurements for wild-type S100A4, using Quin-2 as described above, were repeated as a control for the effect of target peptides on this process. On mixing 10 μM S100A4 in the presence of Ca^2+ with 100 μM Quin-2, the observed profile was fitted to a single exponential with kobs = 17 s^− 1 (Fig. 5a; cf. k− 1 in Scheme 1).
Fig. 5 Dissociation of Ca^2+ from S100A4 in the absence and in the presence of target peptides monitored using Quin-2 fluorescence. (a) Mixed with 100 μM Quin-2 was 10 μM S100A4 + 50 μM Ca^2+ (stopped-flow reaction chamber concentrations). A superposed fit to a single exponential yields kobs = 17 s^− 1. […] (d) As in (a), but with 2.5 μM M200 premixed with 5 μM S100A4. A biphasic exponential fit yielded rate constants of 13 s^− 1 (A = 26%) and 0.30 s^− 1 (A = 74%). […] Experiments were carried out in either 20 mM NaCl, 20 mM Tris, 1 mM DTT, and 100 μM Ca^2+ at pH 7.5 and 20 °C (a and b; cf. Malashkevich et al.[17]), or 100 mM NaCl, 10 mM Hepes, and 100 μM Ca^2+ at pH 7.5 and 20 °C (c and d). […] Rate constants were unaffected by the inclusion of 1 mM Mg^2+.
Stopped-flow measurements were carried out using an SX18-MV apparatus (Applied Photophysics Ltd., Leatherhead, UK) with a dead time of 1.5 ms.[40] Records were generally captured on a logarithmic time base. Absorption (turbidity) measurements were usually recorded using a 10-mm pathlength, while fluorescence was recorded with a 2-mm pathlength for excitation and emission. The stated concentrations of components refer to the reaction chamber after mixing, unless otherwise indicated. Tyrosine fluorescence was excited at 280 nm, and the emission was collected through a UG11 bandpass filter plus a 305-nm longpass filter.[18] Fluorescein fluorescence was excited at 480 nm, and the emission was detected through a 515-nm longpass filter. Quin-2 fluorescence was measured by excitation at 336 nm, and emission was collected with a 455-nm longpass filter. For simultaneous recording of light scatter, a second channel was monitored through a UG11 filter. Rate constants were obtained by fitting to single-exponential or double-exponential functions using Kaleidagraph (Synergy Software) or Applied Photophysics Pro-Data software. Modeling of kinetic schemes was performed using Berkeley Madonna software.

Data set [2] is described as follows: CD / helical stability of M111. It is filed as physicochemical. As to conditions: 0.05 mM protein. As to the method: CD spectra were measured on a JASCO J-715 spectropolarimeter equipped with a JASCO PTC-348WI temperature-controlled unit at 0.05 mM protein solutions using a 1-mm pathlength microcuvette.
[3] abbreviates: increasing concentrations of M111.

Entries after “also recorded” stand apart in the source; their conditions may differ.

T1 sequence (P26447 whole entry): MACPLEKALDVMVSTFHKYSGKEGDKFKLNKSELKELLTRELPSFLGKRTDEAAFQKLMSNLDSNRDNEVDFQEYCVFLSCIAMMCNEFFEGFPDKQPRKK

B1: M111: His-tagged human NM-MHC IIA residues 1850-1960, V1913I substitution (protein, UniProt P35579 1850-1960, looked up, variant V1913I)
chain: QVDDERRNAEQYKDQADKASTRLKQLKRQLEEAEEEAQRANASRRKLQRELEDATETADAMNREISSLKNKLRRGDLPFVVPRRMARKGAGDGSDEEVDGKADGAEAKPAE
modifications: His tag
notes: His-tagged human NM-MHC IIA residues 1850-1960, V1913I substitution
Turning to B1, in data set [1] (5 μM M111, 10 μM S100A4), the fast-phase amplitude stood at 6% and the slow-phase amplitude was 94%. Moreover, the slow-phase rate constant in data set [1] (5 μM M111, 10 μM S100A4, 50 μM Ca^2+, 100 μM Quin-2) was determined as 0.36 s⁻¹. Moreover, in data set [1] (5 μM M111, 10 μM S100A4, 50 μM Ca^2+, 100 μM Quin-2, residual unbound S100A4), the fast-phase rate constant amounted to 21 s⁻¹. Further, the “slower release of Ca^2+” value in data set [1] (in presence of coiled-coil fragments) is reported as 0.3–0.5 s^− 1. Moreover, in data set [1] (setting [3]), the fast-phase rate constant was 20 s^− 1 and the slow-phase rate constant was 0.4 s^− 1. For the same molecule, in data set [1] (peptide–S100A4–Ca^2+ complex), the “Ca^2+ dissociation rate constant from complex (k− 3), comparison” value is given as 0.3 s^− 1. Besides, the helical structure stability entry in data set [2] is “high helical content detected for the fragment by CD below 20 °C; also recorded: only marginally stable at 20 °C”.
